# Results taken from patent publication US7456147B2, “Controlled release of active agents utilizing repeat sequence protein polymers” (Dow Corning, Corporation, priority 2003, dated 2008).
# Assay: Isoelectric point of SELP repeat sequence protein polymers
# Assay type: physicochemical
substance,measurement,value
"SELP47K: silk-elastin repeat sequence protein block copolymer, head-[(GAGAGS)2(GVGVP)3GKGVP(GVGP)4(GAGAGS)2]13-tail, 886 amino acids",pI of the protein,10.5
